Results on 10 molecules are retold here after patent US20240254193A1.

To fix the notation:
B1: super-TRAIL AX-1632, P50591 114-281 (ligand)
chain: VRERGPQRVAAHITGTRGRSNTLSSPNSKNEKALGRKINSWESSRSGHSFLSNLHLRNGELVIHEKGFYYIYSQTYFRFQEEIKENTKNDKQMVQYIYKYTSYPDPILLMKSARNSCWSKDAEYGLYSIYQGGIFELKENDRIFVSVTNEHLIDMDHEASFFGAFLVGGGGGGGGGGVAAHITGTRGRSNTLSSPNSKNEKALGRKINSWESSRSGHSFLSNLHLRNGELVIHEKGFYYIYSQTYFRFQEEIKENTKNDKQMVQYIYKYTSYPDPILLMKSARNSCWSKDAEYGLYSIYQGGIFELKENDRIFVSVTNEHLIDMDHEASFFGAFLVG
B2: super-TRAIL AX-1611, P50591 114-281 (ligand)
chain: VRERGPQRVAAHITGTRGRSNTLSSPNSKNEKALGRKINSWESSRSGHSFLSNLHLRNGELVIHEKGFYYIYSQTYFRFQEEIKENTKNDKQMVQYIYKYTSYPDPILLMKSARNSCWSKDAEYGLYSIYQGGIFELKENDRIFVSVTNEHLIDMDHEASFFGAFLVGGGGGGVAAHITGTRGRSNTLSSPNSKNEKALGRKINSWESSRSGHSFLSNLHLRNGELVIHEKGFYYIYSQTYFRFQEEIKENTKNDKQMVQYIYKYTSYPDPILLMKSARNSCWSKDAEYGLYSIYQGGIFELKENDRIFVSVTNEHLIDMDHEASFFGAFLVG
B3: super-TRAIL AX-1618, P50591 114-281 (ligand)
chain: VRERGPQRVAAHITGTRGRSNTLSSPNSKNEKALGRKINSWESSRSGHSFLSNLHLRNGELVIHEKGFYYIYSQTYFRFQEEIKENTKNDKQMVQYIYKYTSYPDPILLMKSARNSCWSKDAEYGLYSIYQGGIFELKENDRIFVSVTNEHLIDMDHEASFFGAFLVGGGGSGGGGSGGVAAHITGTRGRSNTLSSPNSKNEKALGRKINSWESSRSGHSFLSNLHLRNGELVIHEKGFYYIYSQTYFRFQEEIKENTKNDKQMVQYIYKYTSYPDPILLMKSARNSCWSKDAEYGLYSIYQGGIFELKENDRIFVSVTNEHLIDMDHEASFFGAFLVG
B4: super-TRAIL AX-1622, P50591 114-281 (ligand)
chain: VRERGPQRVAAHITGTRGRSNTLSSPNSKNEKALGRKINSWESSRSGHSFLSNLHLRNGELVIHEKGFYYIYSQTYFRFQEEIKENTKNDKQMVQYIYKYTSYPDPILLMKSARNSCWSKDAEYGLYSIYQGGIFELKENDRIFVSVTNEHLIDMDHEASFFGAFLVGGGGSGGGVAAHITGTRGRSNTLSSPNSKNEKALGRKINSWESSRSGHSFLSNLHLRNGELVIHEKGFYYIYSQTYFRFQEEIKENTKNDKQMVQYIYKYTSYPDPILLMKSARNSCWSKDAEYGLYSIYQGGIFELKENDRIFVSVTNEHLIDMDHEASFFGAFLVG
B5: super-TRAIL AX-1621, P50591 114-281 (ligand)
chain: VRERGPQRVAAHITGTRGRSNTLSSPNSKNEKALGRKINSWESSRSGHSFLSNLHLRNGELVIHEKGFYYIYSQTYFRFQEEIKENTKNDKQMVQYIYKYTSYPDPILLMKSARNSCWSKDAEYGLYSIYQGGIFELKENDRIFVSVTNEHLIDMDHEASFFGAFLVGGGGSGGVAAHITGTRGRSNTLSSPNSKNEKALGRKINSWESSRSGHSFLSNLHLRNGELVIHEKGFYYIYSQTYFRFQEEIKENTKNDKQMVQYIYKYTSYPDPILLMKSARNSCWSKDAEYGLYSIYQGGIFELKENDRIFVSVTNEHLIDMDHEASFFGAFLVG
B6: super-TRAIL AX-1631, P50591 114-281 (ligand)
chain: B5 chain with S172G
B7: super-TRAIL AX-1623, P50591 114-281 (ligand)
chain: VRERGPQRVAAHITGTRGRSNTLSSPNSKNEKALGRKINSWESSRSGHSFLSNLHLRNGELVIHEKGFYYIYSQTYFRFQEEIKENTKNDKQMVQYIYKYTSYPDPILLMKSARNSCWSKDAEYGLYSIYQGGIFELKENDRIFVSVTNEHLIDMDHEASFFGAFLVGGGGSGGGGVAAHITGTRGRSNTLSSPNSKNEKALGRKINSWESSRSGHSFLSNLHLRNGELVIHEKGFYYIYSQTYFRFQEEIKENTKNDKQMVQYIYKYTSYPDPILLMKSARNSCWSKDAEYGLYSIYQGGIFELKENDRIFVSVTNEHLIDMDHEASFFGAFLVG
B8: super-TRAIL AX-1630, P50591 114-281 (ligand)
chain: B7 chain with S172G
B9: super-TRAIL AX-1606, P50591 120-281 (ligand)
chain: QRVAAHITGTRGRSNTLSSPNSKNEKALGRKINSWESSRSGHSFLSNLHLRNGELVIHEKGFYYIYSQTYFRFQEEIKENTKNDKQMVQYIYKYTSYPDPILLMKSARNSCWSKDAEYGLYSIYQGGIFELKENDRIFVSVTNEHLIDMDHEASFFGAFLVGGGGSGGGGSGGQRVAAHITGTRGRSNTLSSPNSKNEKALGRKINSWESSRSGHSFLSNLHLRNGELVIHEKGFYYIYSQTYFRFQEEIKENTKNDKQMVQYIYKYTSYPDPILLMKSARNSCWSKDAEYGLYSIYQGGIFELKENDRIFVSVTNEHLIDMDHEASFFGAFLVG
B10: super-TRAIL AX-1620, P50591 114-281 (ligand)
chain: VRERGPQRVAAHITGTRGRSNTLSSPNSKNEKALGRKINSWESSRSGHSFLSNLHLRNGELVIHEKGFYYIYSQTYFRFQEEIKENTKNDKQMVQYIYKYTSYPDPILLMKSARNSCWSKDAEYGLYSIYQGGIFELKENDRIFVSVTNEHLIDMDHEASFFGAFLVGGGGSGGGGSGGGSGGVAAHITGTRGRSNTLSSPNSKNEKALGRKINSWESSRSGHSFLSNLHLRNGELVIHEKGFYYIYSQTYFRFQEEIKENTKNDKQMVQYIYKYTSYPDPILLMKSARNSCWSKDAEYGLYSIYQGGIFELKENDRIFVSVTNEHLIDMDHEASFFGAFLVG

Numbering of substitutions follows the chain as printed.

The target of this experiment is TRAIL receptors. Put plainly: cell-based or functional assay.
As for B1, the EC50 measured by use of L929 cells was 1.1 ng/mL. For B2, the EC50, viability of H460 cells by MTS assay is 54.7 ng/mL; the EC50, viability of RPMI-8226 cells by MTS assay was 15.4 ng/mL; the EC50 measured by use of L929 cells worked out at 0.85 ng/mL; the fold enhanced activity to induce apoptosis in L929 cells compared with wild type TRAIL turned out to be 30 fold. For the molecule B3, the EC50 measured by use of L929 cells was 1.5 ng/mL. In turn, B4 yielded an EC50 measured by use of L929 cells of 5.3 ng/mL.

Molecule B5 returned an EC50 measured by use of L929 cells of 0.95 ng/mL.

With B6, the EC50 measured by use of L929 cells came to 1.2 ng/mL. In turn, B7 showed an EC50 measured by use of L929 cells of 0.88 ng/mL. On the same count and under the same terms, as for B8, the figure is 0.78 ng/mL. The same measure, in the same setting: under B9 stands 1.05 ng/mL; under B10, 2.1 ng/mL.
